Assay results reported in patent US20040203101A1 (Human Genome Sciences, published 2004).

Assays:
[1] = target: T1, human two-chain tPA (human, UniProt P00750 36-310; P00750 311-562); experiment: comparison of rates of inhibition; reference PN-1 with tPA
T1 construct: Two-chain (cleaved) form; also called tctPA

[2] = target: T1, human two-chain tPA; experiment: comparison of rates of inhibition from Table I; reference BAIT with uPA
[3] = target: plasmin (Homo sapiens (Human), UniProt P00747 97-580; P00747 581-810, Two chains joined by disulfide bonds after cleavage of plasminogen at Arg580-Val581 (precursor count).); experiment: kinetic constants for the interaction of BAIT with proteinases; method not described
plasmin, sequence (P00747 97-580 limits assumed, form in doubt, chain 1 of 2): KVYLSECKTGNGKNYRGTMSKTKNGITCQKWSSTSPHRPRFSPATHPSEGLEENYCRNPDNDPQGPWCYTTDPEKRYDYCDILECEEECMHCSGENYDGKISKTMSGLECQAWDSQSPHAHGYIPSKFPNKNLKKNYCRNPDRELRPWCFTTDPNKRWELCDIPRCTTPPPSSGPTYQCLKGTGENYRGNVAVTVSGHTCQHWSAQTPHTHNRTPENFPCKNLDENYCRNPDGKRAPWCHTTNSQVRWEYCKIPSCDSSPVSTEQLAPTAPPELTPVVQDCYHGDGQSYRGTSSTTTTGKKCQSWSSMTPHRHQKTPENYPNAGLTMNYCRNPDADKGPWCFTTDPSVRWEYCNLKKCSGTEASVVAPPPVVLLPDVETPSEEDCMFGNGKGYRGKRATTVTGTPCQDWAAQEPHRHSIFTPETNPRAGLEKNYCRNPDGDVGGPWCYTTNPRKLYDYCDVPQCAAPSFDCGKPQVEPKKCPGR
plasmin, sequence (P00747 581-810 limits assumed, form in doubt, chain 2 of 2): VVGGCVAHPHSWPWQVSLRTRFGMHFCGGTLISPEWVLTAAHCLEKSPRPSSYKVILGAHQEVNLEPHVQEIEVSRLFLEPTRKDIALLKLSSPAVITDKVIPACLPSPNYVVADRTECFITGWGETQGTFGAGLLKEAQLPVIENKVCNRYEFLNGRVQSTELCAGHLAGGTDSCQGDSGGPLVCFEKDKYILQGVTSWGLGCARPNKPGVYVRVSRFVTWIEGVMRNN

[4] = target: thrombin (Homo sapiens (Human), UniProt P00734 328-363; P00734 364-622); experiment: as above
[5] = target: T2, human high molecular weight uPA (human, UniProt P00749 21-431); experiment: as above
T2 construct: also called uPA-H

[6] = target: human low molecular weight uPA (human, UniProt P00749 156-431); experiment: as above
[7] = target: T3, human single-chain tPA (human, UniProt P00750 36-562); experiment: as above
T3 construct: also called sctPA
T3 sequence (P00750 36-562 limits assumed): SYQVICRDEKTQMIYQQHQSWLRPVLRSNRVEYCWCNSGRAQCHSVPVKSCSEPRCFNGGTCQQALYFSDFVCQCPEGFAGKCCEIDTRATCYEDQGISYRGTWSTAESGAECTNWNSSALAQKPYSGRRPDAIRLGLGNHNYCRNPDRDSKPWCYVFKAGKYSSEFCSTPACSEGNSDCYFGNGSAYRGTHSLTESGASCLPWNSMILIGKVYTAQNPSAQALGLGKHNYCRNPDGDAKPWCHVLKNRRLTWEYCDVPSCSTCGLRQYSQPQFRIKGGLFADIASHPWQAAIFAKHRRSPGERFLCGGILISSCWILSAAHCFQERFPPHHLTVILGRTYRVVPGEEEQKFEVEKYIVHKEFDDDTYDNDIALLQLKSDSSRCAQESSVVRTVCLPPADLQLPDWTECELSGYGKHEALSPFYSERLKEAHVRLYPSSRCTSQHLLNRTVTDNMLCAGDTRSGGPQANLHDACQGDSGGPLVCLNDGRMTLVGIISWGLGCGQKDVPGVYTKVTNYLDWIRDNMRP

[8] = target: T1, human two-chain tPA; experiment: as above
[9] = target: T4, bovine beta trypsin (bovine, UniProt P00760 24-246); experiment: as above
T4 construct: also called β-trypsin
T4 sequence (P00760 24-246 limits assumed): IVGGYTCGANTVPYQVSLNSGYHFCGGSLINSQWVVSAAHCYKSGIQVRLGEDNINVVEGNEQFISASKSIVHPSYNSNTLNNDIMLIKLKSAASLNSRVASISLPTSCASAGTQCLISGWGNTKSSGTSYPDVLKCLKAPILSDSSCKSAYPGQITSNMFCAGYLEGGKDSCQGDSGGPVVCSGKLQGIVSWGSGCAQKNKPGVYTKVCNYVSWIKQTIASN

[10] = target: T1, human two-chain tPA; experiment: comparison of rates of inhibition; reference PAI-1 with tPA
[11] = target: tissue-type plasminogen activator, tPA (Genentech) (human, UniProt P00750 36-562); experiment: cell-based or functional assay
tissue-type plasminogen activator, tPA (Genentech), sequence (P00750 36-562 limits assumed): as the sequence (P00750 36-562 limits assumed) above

[12] = target: urokinase-type plasminogen activator, uPA (Serono) (UniProt P00749 21-431, limits assumed); experiment: cell-based or functional assay
[13] = target: T4, bovine beta trypsin; experiment: cell-based or functional assay

T1 sequence (P00750 36-310 limits assumed, chain 1 of 2): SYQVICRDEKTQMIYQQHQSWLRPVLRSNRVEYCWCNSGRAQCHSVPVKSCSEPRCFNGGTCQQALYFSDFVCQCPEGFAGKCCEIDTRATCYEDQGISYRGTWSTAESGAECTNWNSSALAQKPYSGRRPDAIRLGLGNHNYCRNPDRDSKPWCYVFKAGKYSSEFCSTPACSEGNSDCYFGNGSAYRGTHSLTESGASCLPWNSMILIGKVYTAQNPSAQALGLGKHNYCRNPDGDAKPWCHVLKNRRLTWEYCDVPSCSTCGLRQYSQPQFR
T1 sequence (P00750 311-562 limits assumed, chain 2 of 2): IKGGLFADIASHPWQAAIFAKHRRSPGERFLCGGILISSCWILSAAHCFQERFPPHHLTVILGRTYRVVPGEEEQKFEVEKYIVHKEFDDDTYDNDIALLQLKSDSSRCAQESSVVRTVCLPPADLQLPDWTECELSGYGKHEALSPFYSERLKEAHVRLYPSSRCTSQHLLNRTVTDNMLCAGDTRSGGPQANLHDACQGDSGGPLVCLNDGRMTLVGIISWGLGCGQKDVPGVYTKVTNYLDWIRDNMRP

B1: human BAIT (Brain-Associated Inhibitor of Tissue-Type Plasminogen Activator), mature protein expressed in baculovirus/Sf9 cells and purified (other)
chain: ATFPEEAIADLSVNMYNRLRATGEDENILFSPLSIALAMGMMELGAQGSTQKEIRHSMGYDSLKNGEEFSFLKEFSNMVTAKESQYVMKIANSLFVQNGFHVNEEFLQMMKKYFNAAVNHVDFSQNVAVANYINKWVENNTNNLVKDLVSPRDFDAATYLALINAVYFKGNWKSQFRPENTRTFSFTKDDESEVQIPMMYQQGEFYYGEFSDGSNEAGGIYQVLEIPYEGDEISMMLVLSRQEVPLATLEPLVKAQLVEEWANSVKKQKVEVYLPRFTVEQEIDLKDVLKALGITEIFIKDANLTGLSDNKEIFLSKAIHKSFLEVNEEGSEAAAVSGMIAISRMAVLYPQVIVDHPFFFLIRNRRTGTILFMGRVMHPETMNTSGHDFEEL
modifications: glycosylated (positions not stated)
notes: The preparation has mixed N-termini (also called BAIT protein); neural serpin
fold faster reaction with tPA than PN-1 [1]: ~20 fold
fold faster rate of inhibition of tPA than of uPA [2]: ~25 fold
K [3]: 0.15 µM
k [3]: 5.2e-05 s⁻¹
ki [3]: 360 M⁻¹ s⁻¹
K [4]: 0.64 µM
k [4]: 0.000131 s⁻¹
ki [4]: 210 M⁻¹ s⁻¹
K [5]: 0.2 µM
k [5]: 0.005 s⁻¹
ki [5]: 25000 M⁻¹ s⁻¹
K [6]: 1.4 µM
k [6]: 0.013 s⁻¹
ki [6]: 9200 M⁻¹ s⁻¹
K [7]: 2.1 µM
k [7]: 0.17 s⁻¹
ki [7]: 80000 M⁻¹ s⁻¹
K [8]: 0.12 µM
k [8]: 0.078 s⁻¹
ki [8]: 620000 M⁻¹ s⁻¹
K [9]: 0.16 µM
k [9]: 0.0096 s⁻¹
ki [9]: 59000 M⁻¹ s⁻¹
fold slower reaction with tPA than PAI-1 [10]: ~30 fold
half-maximal inhibitory concentration (IC50) of proteolytic activity, single step chromogenic assay [11]: 200 nM
half-maximal inhibitory concentration (IC50) of proteolytic activity, single step chromogenic assay [12]: 1000 nM
half-maximal inhibitory concentration (IC50) of proteolytic activity, single step chromogenic assay [13]: 700 nM
